Assay results taken from patent US20190225979A1.

Target: fetuin

recombinant protein of H5 hemagglutinin ectodomain (H5HA)
absorbance at 450 nm: 0.15 O.D. 450
